{
  "source": "patent US20240101667A1",
  "about": "(University of Texas, published 2024)",
  "binders": {"B1": {"name": "anti-LILRB3 IgG #26 (antibody, V domains shown)", "VH": "QVQMVESGGGLVKPGGSLRLSCAASGFTFSDHYLSWIRQAPGKGLEWVSYIDLSGSTVYYGDSVKGRFTISRDNARNSVYLQMNSLRAEDTAVYYCARGHYGLDVWGQGTMVTVSS", "VL": "NIQMTQSPSTLSASVGDRVTISCRASQSIGTWLAWYQQKPGKAPQLLIYKASSLHSGVPSRFSGSGSGTEFTLTISSLQPDDFATYYCQQYNLYSRTFGQGTKVEIK", "notes": "Fully human IgG; also called B3-26"}, "B2": {"name": "anti-LILRB3 IgG #1 (antibody, V domains shown)", "VH": "EVQLVESGGGVVQPGRSLRLSCAASGFTFSSYGMHWVRQAPGKGLEWVAFIRYDGSNKYYADSVKGRFTISRDNSKNTLYLQMNSLRAEDTAVYYCAKAGFSGWYYYGMDVWGQGTMVTVSS", "VL": "DIVMTQSPSSLSASVGDRLTITCRASQSISTYLNWYQQKPGKAPKLLIYGASSLQSGVPSRFSGSGSGTDFTLTISSLQPEDFATYFCQQSYGLPLTFGGGTKVDIK", "notes": "Fully human IgG from scFv phage display; also called anti-LILRB3 #1; B3-1"}, "B3": {"name": "anti-LILRB3 antibody #32 (antibody, V domains shown)", "VH": "QVQLVQSGAEVKKPGSSVKVSCKASGGTFSSYAISWVRQAPGQGLEWMGGIIPIFGTANYAQKFQGRVTITADESTSTAYMELSSLRSEDTAVYYCARGWNWFDPWGQGTMVIVSS", "VL": "QSVLTQPPSVSADPGQKVTISCSGSSSNIGKNYVSWYQQLPGTAPKLLIYDDNRRLSGTPDRFSGSKSGTSATLGITGLQTGDEADYYCGAWDSSLSAYVFGTGTTVTVL", "notes": "Fully human IgG; Tied to clone 'B3-32' only by the clone number; also called B3-32"}, "B4": {"name": "B3ICDhFc (LILRB3 intracellular domain fused to hFc at C-terminus) (Fc fusion)", "chain": "RRQRHSKHRTSDQRKTDFQRPAGAAETEPKDRGLLRRSSPAADVQEENLYAAVKDTQSEDRVELDSQSPHDEDPQAVTYAPVKHSSPRREMASPPSSLSGEFLDTKDRQVEEDRQMDTEAAASEASQDVTYAQLHSLTLRRKATEPPPSQEGEPPAEPSIYATLAIH", "notes": "domain: intracellular domain; also called B3ICD fused to human Fc; intracellular domain of LILRB3 alone; not shown: hFc (human Fc)"}, "B5": {"name": "HA-TRAF2 (exogenous, expressed in 293T cells) (other, human, UniProt Q12933 1-501, looked up)", "chain": "MAAASVTPPGSLELLQPGFSKTLLGTKLEAKYLCSACRNVLRRPFQAQCGHRYCSFCLASILSSGPQNCAACVHEGIYEEGISILESSSAFPDNAARREVESLPAVCPSDGCTWKGTLKEYESCHEGRCPLMLTECPACKGLVRLGEKERHLEHECPERSLSCRHCRAPCCGADVKAHHEVCPKFPLTCDGCGKKKIPREKFQDHVKTCGKCRVPCRFHAIGCLETVEGEKQQEHEVQWLREHLAMLLSSVLEAKPLLGDQSHAGSELLQRCESLEKKTATFENIVCVLNREVERVAMTAEACSRQHRLDQDKIEALSSKVQQLERSIGLKDLAMADLEQKVLEMEASTYDGVFIWKISDFARKRQEAVAGRIPAIFSPAFYTSRYGYKMCLRIYLNGDGTGRGTHLSLFFVVMKGPNDALLRWPFNQKVTLMLLDQNNREHVIDAFRPDVTSSSFQRPVNDMNIASGCPLFCPVSKMEAKNSYVRDDAIFIKAIVDLTGL", "notes": "also called exogenous HA-TRAF2; not shown: HA tag"}},
  "key": {"[1]": {"molecular_target": "T1, recombinant LILRB3 (human LILRB3 extracellular domain protein) (human, UniProt O75022 24-443)", "T1 construct": "extracellular domain; The panning method names the 'human LILRB3 extracellular domain protein'; The Octet method says only 'recombinant LILRB3', and the antigen of the ELISA is not described; also called LILRB3-ECD", "experiment": "Octet (BLI), antibody on protein A biosensors, recombinant LILRB3 in solution", "procedure": "Affinity measurement and epitope binning: Affinity measurement and epitope binning were done as described previously (Gui et al., 2019). Briefly, antibody affinity was analyzed with the Octet RED96 instrument. […] ForteBio's data analysis software was used to extract association and dissociation rates assuming a 1:1 binding model. The Kd was calculated as the ratio koff/kₒₙ. […] In these epitope binning assays, primary antibodies (40 μg/ml) were loaded onto protein A biosensors, and remaining Fc-binding sites on the sensor were blocked with a human non-targeting IgG (200 μg/ml). […] Raw data were processed using ForteBio's Data Analysis Software 7.0. Antibody pairs were assessed for competitive binding."}, "[2]": {"molecular_target": "FLAG-cFLIP (exogenous, expressed in 293T cells) (human, UniProt O15519 1-480)", "sequence (O15519 whole entry)": "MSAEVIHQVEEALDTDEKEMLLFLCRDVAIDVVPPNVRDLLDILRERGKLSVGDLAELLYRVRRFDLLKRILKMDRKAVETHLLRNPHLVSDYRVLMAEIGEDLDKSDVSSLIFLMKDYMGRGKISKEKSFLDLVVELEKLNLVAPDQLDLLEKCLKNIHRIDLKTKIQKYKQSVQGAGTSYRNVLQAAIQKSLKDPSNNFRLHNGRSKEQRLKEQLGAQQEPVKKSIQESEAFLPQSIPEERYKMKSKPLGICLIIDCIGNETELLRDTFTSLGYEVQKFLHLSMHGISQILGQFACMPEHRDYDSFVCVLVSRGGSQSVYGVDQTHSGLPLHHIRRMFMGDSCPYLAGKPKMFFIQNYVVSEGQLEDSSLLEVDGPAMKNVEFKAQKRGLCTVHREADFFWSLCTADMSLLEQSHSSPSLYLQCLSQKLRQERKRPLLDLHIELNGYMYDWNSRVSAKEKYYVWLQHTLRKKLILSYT", "experiment": "co-immunoprecipitation of FLAG-cFLIP with hFc-tagged LILRB3 constructs in 293T cells (FIG. 5e)", "description": "(§1) Western blotting and co-immunoprecipitation. Cells were lysed with RIPA buffer containing protease inhibitor (Roche Diagnostic). Samples were mixed with 2×SDS loading buffer and separated by SDS-PAGE. After transfer to nitrocellulose membranes, the protein was detected with specific primary antibodies and HRP-conjugated secondary antibodies. […] For immunoprecipitation, cells were lysed with Pierce IP Lysis Buffer (Thermo Fisher Scientific, 87787). […] Dynabeads protein A (Thermo Fisher Scientific, 10001D) was used in all co-immunoprecipitation."}, "[3]": {"molecular_target": "T2, LILRB3 with amino acids 509-511 mutated from QEE to AAA (human, UniProt O75022 24-631)", "T2 construct": "also called B3 AAA mutant; not shown: hFc tag, per the general co-immunoprecipitation method", "experiment": "co-immunoprecipitation in 293T cells", "description": "as §1"}, "[4]": {"molecular_target": "T3, LILRB3 with deletion of amino acids 505-515 (human, UniProt O75022 24-631)", "T3 construct": "Deletion mutant; not shown: hFc tag, per the general co-immunoprecipitation method", "experiment": "co-immunoprecipitation in 293T cells", "description": "as §1"}},
  "data": [
    {"binder": "B1", "values": [
      {"measurement": "binding result", "setting": "[1]", "value": "binds"}
    ]},
    {"binder": "B2", "values": [
      {"measurement": "binding result", "setting": "[1]", "value": "binds"}
    ]},
    {"binder": "B3", "values": [
      {"measurement": "binding result", "setting": "[1]", "value": "binds"}
    ]},
    {"binder": "B4", "values": [
      {"measurement": "binding result", "setting": "[2]", "value": "no binding"}
    ]},
    {"binder": "B5", "values": [
      {"measurement": "binding result", "setting": "[3]", "value": "no binding"},
      {"measurement": "binding result", "setting": "[4]", "value": "no binding"}
    ]}
  ]
}
